Data taken from US20240116985A1 (published 2024).
Starred links: 1 amine or outer side, 2 acyl side, 3 side chain; linkers in the order of their positions; H or OH if unused. Positions of bridges follow the written chain, without caps; N, C: chain ends. Non-standard residues stand in square brackets, D forms with d. Primed or numbered codes have the meaning given here. RdN(3) = (R)-4-(((allyloxy)carbonyl)(methyl)amino)-2-amino-2-methylbutanoic acid, stapling residue, C=CCOC(=O)N(C)CC[C@@](C)(N[*:1])C(=O)[*:2]; RdN″ = (R)-4-(((allyloxy)carbonyl)(methyl)amino)-2-amino-2-methylbutanoic acid (stapling residue), C=CCOC(=O)N(C)CC[C@@](C)(N[*:1])C(=O)[*:2]; PyrS(3) = (S)-1-((allyloxy)carbonyl)-3-aminopyrrolidine-3-carboxylic acid, stapling residue, C=CCOC(=O)N1CC[C@@](N[*:1])(C(=O)[*:2])C1; PyrS″ = (S)-1-((allyloxy)carbonyl)-3-aminopyrrolidine-3-carboxylic acid (stapling residue), C=CCOC(=O)N1CC[C@@](N[*:1])(C(=O)[*:2])C1; PyrS = (S)-1-((allyloxy)carbonyl)-3-aminopyrrolidine-3-carboxylic acid, C=CCOC(=O)N1CC[C@@](N[*:1])(C(=O)[*:2])C1; S7 = C[C@@](CCCCCC=[*:3])(N[*:1])C(=O)[*:2]; Phe(3-F) = N[C@@H](Cc1cccc(F)c1)C(=O)O; d(αMeF) = C[C@@](N)(Cc1ccccc1)C(=O)O; 3Pal = N[C@@H](Cc1cccnc1)C(=O)O; 4Pal = N[C@@H](Cc1ccncc1)C(=O)O; R8 = C=CCCCCCC[C@@](C)(N)C(=O)O; Cha = N[C@@H](CC1CCCCC1)C(=O)O; hLeu = CC(C)CC[C@H](N)C(=O)O; S5 = C=CCCC[C@](C)(N)C(=O)O; Nle = CCCC[C@H](N)C(=O)O

T1: full-length beta-Catenin (Uniprot ID P35222) (Homo sapiens (Human), UniProt P35222 2-781)
T1 construct: Used full-length in both the FP and the AlphaScreen assay; also called B-Catenin; bCat
T1 sequence: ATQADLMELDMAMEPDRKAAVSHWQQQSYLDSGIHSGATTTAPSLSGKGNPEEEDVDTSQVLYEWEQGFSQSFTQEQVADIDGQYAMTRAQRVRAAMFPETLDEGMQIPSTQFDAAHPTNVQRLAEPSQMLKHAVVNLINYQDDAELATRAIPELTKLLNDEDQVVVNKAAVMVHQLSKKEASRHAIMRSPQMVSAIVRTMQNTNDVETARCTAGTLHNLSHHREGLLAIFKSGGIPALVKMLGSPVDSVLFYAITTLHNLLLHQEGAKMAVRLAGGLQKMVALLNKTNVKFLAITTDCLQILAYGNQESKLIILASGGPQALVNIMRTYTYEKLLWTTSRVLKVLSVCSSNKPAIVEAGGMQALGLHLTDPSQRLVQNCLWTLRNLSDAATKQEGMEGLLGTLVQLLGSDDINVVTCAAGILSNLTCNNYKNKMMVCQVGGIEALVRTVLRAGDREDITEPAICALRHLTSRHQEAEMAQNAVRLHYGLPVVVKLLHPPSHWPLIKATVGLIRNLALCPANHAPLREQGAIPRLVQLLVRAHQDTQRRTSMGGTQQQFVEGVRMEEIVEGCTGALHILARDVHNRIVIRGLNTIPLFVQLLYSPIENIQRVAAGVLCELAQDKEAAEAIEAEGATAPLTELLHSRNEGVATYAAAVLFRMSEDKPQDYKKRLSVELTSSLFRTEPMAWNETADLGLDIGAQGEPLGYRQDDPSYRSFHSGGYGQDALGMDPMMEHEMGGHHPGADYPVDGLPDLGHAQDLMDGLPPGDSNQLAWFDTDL

B1: I-70 (peptide)
peptide: Ac-ADI[RdN″]D[hLeu]AAFQ[S7]FWH-NH2
modifications: staple 4-11
notes: Stapled peptide; also called Ac-Ala-Asp-Ile-RdN-Asp-hLeu-Ala-Ala-Phe-Gln-S7-Phe-Trp-His-NH2
B2: I-49 (peptide)
peptide: Ac-FD[RdN(3)]ADDAAF[S7]AFWQ-NH2
modifications: staple 3-10; also: earlier-eluting HPLC isomer, E/Z not assigned
notes: Stapled peptide; also called Ac-Phe-Asp-RdN-Ala-Asp-Asp-Ala-Ala-Phe-S7-Ala-Phe-Trp-Gln-NH2
B3: I-51 (peptide)
peptide: Ac-FD[R8]ADDAAF[PyrS(3)]AFWQ-NH2
modifications: staple 3-10
notes: Stapled peptide; also called Ac-Phe-Asp-R8-Ala-Asp-Asp-Ala-Ala-Phe-PyrS-Ala-Phe-Trp-Gln-NH2
B4: I-75 (peptide)
peptide: Ac-FDA[R8]DDAA[Cha]V[PyrS″]FWQ-NH2
modifications: staple 4-11; not fully specified; printed as Ac-Phe-Asp-Ala-R8-Asp-Asp-Ala-Ala-Cha-Val-PyrS-Phe-Trp-Gln-NH2
notes: Stapled peptide; also called Ac-Phe-Asp-Ala-R8-Asp-Asp-Ala-Ala-Cha-Val-PyrS-Phe-Trp-Gln-NH2
B5: I-84 (peptide)
peptide: Ac-FDA[R8]DDAAFV[PyrS″][4Pal]WQ-NH2
modifications: staple 4-11; not fully specified; printed as Ac-Phe-Asp-Ala-R8-Asp-Asp-Ala-Ala-Phe-Val-PyrS-4PyrA-Trp-Gln-NH2
notes: Stapled peptide; also called Ac-Phe-Asp-Ala-R8-Asp-Asp-Ala-Ala-Phe-Val-PyrS-4PyrA-Trp-Gln-NH2
B6: I-46 (peptide)
peptide: FDAXDDAAFVXFWQ
modifications: not fully specified; N-terminal Ac; C-terminal NH2; RgN at 4 and S7 at 11, stapled
notes: Stapled peptide; also called Ac-Phe-Asp-Ala-RgN-Asp-Asp-Ala-Ala-Phe-Val-S7-Phe-Trp-Gln-NH2
B7: I-56 (peptide)
peptide: Ac-FDA[R8]D[d(αMeF)]AAFV[PyrS″]FWQ-NH2
modifications: staple 4-11
notes: Stapled peptide; also called Ac-Phe-Asp-Ala-R8-Asp-aMeDF-Ala-Ala-Phe-Val-PyrS-Phe-Trp-Gln-NH2
B8: I-63 (peptide)
peptide: Ac-FDA[R8]DDAAFV[PyrS]YWQ-NH2
modifications: staple 4-11; not fully specified; printed as Ac-Phe-Asp-Ala-R8-Asp-Asp-Ala-Ala-Phe-Val-PyrS-Tyr-Trp-Gln-NH2
notes: Stapled peptide; also called Ac-Phe-Asp-Ala-R8-Asp-Asp-Ala-Ala-Phe-Val-PyrS-Tyr-Trp-Gln-NH2
B9: I-57 (peptide)
peptide: Ac-FDA[R8]D[d(αMeF)]AAFV[PyrS″]FWQ-NH2
modifications: staple 4-11; not fully specified
notes: as for B7
B10: I-62 (peptide)
peptide: Ac-FDA[R8]DDAAFV[PyrS″]YWQ-NH2
modifications: staple 4-11; not fully specified; printed as Ac-Phe-Asp-Ala-R8-Asp-Asp-Ala-Ala-Phe-Val-PyrS-Tyr-Trp-Gln-NH2
notes: as for B8
B11: I-59 (peptide)
peptide: Ac-FDA[R8]DQAAFV[PyrS″]FWQ-NH2
modifications: staple 4-11; not fully specified; printed as Ac-Phe-Asp-Ala-R8-Asp-Gln-Ala-Ala-Phe-Val-PyrS-Phe-Trp-Gln-NH2
notes: Stapled peptide; also called Ac-Phe-Asp-Ala-R8-Asp-Gln-Ala-Ala-Phe-Val-PyrS-Phe-Trp-Gln-NH2
B12: I-58 (peptide)
peptide: Ac-FDA[R8]DQAAFV[PyrS]FWQ-NH2
modifications: staple 4-11; not fully specified; printed as Ac-Phe-Asp-Ala-R8-Asp-Gln-Ala-Ala-Phe-Val-PyrS-Phe-Trp-Gln-NH2
notes: as for B11
B13: I-82 (peptide)
peptide: Ac-FDA[R8]DDAAFV[PyrS″][3Pal]WQ-NH2
modifications: staple 4-11
notes: Stapled peptide; also called Ac-Phe-Asp-Ala-R8-Asp-Asp-Ala-Ala-Phe-Val-PyrS-3PyrA-Trp-Gln-NH2
B14: I-60 (peptide)
peptide: Ac-FDA[R8]DDAAFV[PyrS][Cha]WQ-NH2
modifications: staple 4-11
notes: Stapled peptide; also called Ac-Phe-Asp-Ala-R8-Asp-Asp-Ala-Ala-Phe-Val-PyrS-Cha-Trp-Gln-NH2
B15: I-73 (peptide)
peptide: Ac-ADI[RdN(3)]D[Cha]AAFQ[S7]FWH-NH2
modifications: staple 4-11; not fully specified; printed as Ac-Ala-Asp-Ile-RdN-Asp-Cha-Ala-Ala-Phe-Gln-S7-Phe-Trp-His-NH2
notes: Stapled peptide; also called Ac-Ala-Asp-Ile-RdN-Asp-Cha-Ala-Ala-Phe-Gln-S7-Phe-Trp-His-NH2
B16: I-68 (peptide)
peptide: Ac-ADI[RdN″]D[Nle]AAFQ[S7]FWH-NH2
modifications: staple 4-11
notes: Stapled peptide; also called Ac-Ala-Asp-Ile-RdN-Asp-nLeu-Ala-Ala-Phe-Gln-S7-Phe-Trp-His-NH2
B17: I-77 (peptide)
peptide: Ac-FDA[R8]DDAA[Phe(3-F)]V[PyrS]FWQ-NH2
modifications: staple 4-11
notes: Stapled peptide; also called Ac-Phe-Asp-Ala-R8-Asp-Asp-Ala-Ala-3FF-Val-PyrS-Phe-Trp-Gln-NH2
B18: I-47 (peptide)
peptide: Ac-FD[R8]ADDAAF[S5]AFWQ-NH2
modifications: staple 3-10; also: staple isomer composition: earlier-eluting HPLC peak
notes: Stapled peptide; also called Ac-Phe-Asp-R8-Ala-Asp-Asp-Ala-Ala-Phe-S5-Ala-Phe-Trp-Gln-NH2
B19: I-69 (peptide)
peptide: Ac-ADI[RdN″]D[Nle]AAFQ[S7]FWH-NH2
modifications: staple 4-11
notes: as for B16

What follows are binders tested against T1, full-length beta-Catenin (Uniprot ID …) (assay: AlphaScreen competition; full-length beta-catenin, biotin-TCF4(10-53) probe).
Experimental: Equal volume of the titrated peptide was added to the plate and incubated for 15 minutes at 20° C. Then 4 uL of donor and 4 uL acceptor beads at 10 ug/mL were added to the plate, for a 16 uL reaction pool and protected from light for 60 minutes at 20° C. prior to read. Reads were performed on a CLARIOstar plate reader (BMG Labtech) in duplicate, and data were fitted to a 1:1 binding model with hill slope using an in-house script. All provided concentrations are final concentrations.
B1 showed an EC50 of no less than 10 µM. B2 showed an EC50 of no less than 10 µM. B3 was tested, and the EC50 was no less than 10 µM. B4 was tested, and the EC50 was no less than 10 µM. In the case of B5, the EC50 is reported as no less than 10 µM. For B6, the EC50 was no less than 10 µM. For B7, the EC50 was no less than 10 µM. In the case of B8, the EC50 is reported as no less than 10 µM. With B9 the EC50 was no less than 10 µM. B10 was tested, and the EC50 was no less than 10 µM. For B11, the EC50 was 9.88 µM. Work on B12 yielded an EC50 of no less than 10 µM. B13 showed an EC50 of no less than 10 µM. B14 was tested, and the EC50 was no less than 10 µM. Binder B15 has an EC50 of no less than 10 µM. B16 was tested, and the EC50 was 8.12 µM. Binder B17 has an EC50 of no less than 10 µM. For B18, the EC50 was no less than 10 µM. In the case of B19, the EC50 is reported as 9.1 µM.
